Target: T1, CD47 on NUGC-4 cells / hCLDN18.2-NUGC-4 cells (human, UniProt Q08722 19-323)
T1 construct: whole, on cells; also called 内源CD47; 人CD47
Experiment: flow cytometry, blocking of SIRPα-mFc binding to hCLDN18.2-NUGC-4 cells

T1 sequence (Q08722 19-323): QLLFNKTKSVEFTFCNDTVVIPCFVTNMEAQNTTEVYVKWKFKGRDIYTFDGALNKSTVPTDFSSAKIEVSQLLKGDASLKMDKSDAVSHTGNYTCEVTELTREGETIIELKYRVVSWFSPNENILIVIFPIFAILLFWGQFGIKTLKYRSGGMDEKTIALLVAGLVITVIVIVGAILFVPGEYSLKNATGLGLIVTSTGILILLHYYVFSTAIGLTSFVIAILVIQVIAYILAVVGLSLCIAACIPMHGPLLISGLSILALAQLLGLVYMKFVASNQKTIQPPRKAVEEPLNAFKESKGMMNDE

B1: 抗体1F8 (WO2018075857A1中1F8抗体) (antibody, V domains shown)
VH: KVQLVESGGGLVKPGGSLRLSCAASGFTFSNAWMNWVRQAPGKGLEWVGRIKRKTDGETTDYAAPVKGRFSISRDDSKNTLYLQMNSLKTEDTAVYYCAGSNRAFDIWGQGTMVTVSA
VL: DIVMTQSPDSLAVSLGERATINCKSSQSVLYSSNNRNYLAWYQQKPGQPPKLLINQASTRASGVPDRFSGSGSGTEFTLIISSLHAEDVAIYYCQQYYTPPLAFGGGTKLEIK
B1 was tested, and the IC50 was 1.98 µg/mL.

Source: patent CN117180420A (DRAGONBOAT BIOPHARMACEUTICAL SHANGHAI CO LTD, dated 2023)
